What was measured:
[1] = target: T1, recombinant Crtac1B fragment #6 (human, UniProt Q9NQ79 28-606); assay: antigen immobilized ELISA, hybridoma culture supernatant, color development at 655 nm same as plate without antigen
T1 construct: also called fCrtac1B (1-607)
T1 sequence: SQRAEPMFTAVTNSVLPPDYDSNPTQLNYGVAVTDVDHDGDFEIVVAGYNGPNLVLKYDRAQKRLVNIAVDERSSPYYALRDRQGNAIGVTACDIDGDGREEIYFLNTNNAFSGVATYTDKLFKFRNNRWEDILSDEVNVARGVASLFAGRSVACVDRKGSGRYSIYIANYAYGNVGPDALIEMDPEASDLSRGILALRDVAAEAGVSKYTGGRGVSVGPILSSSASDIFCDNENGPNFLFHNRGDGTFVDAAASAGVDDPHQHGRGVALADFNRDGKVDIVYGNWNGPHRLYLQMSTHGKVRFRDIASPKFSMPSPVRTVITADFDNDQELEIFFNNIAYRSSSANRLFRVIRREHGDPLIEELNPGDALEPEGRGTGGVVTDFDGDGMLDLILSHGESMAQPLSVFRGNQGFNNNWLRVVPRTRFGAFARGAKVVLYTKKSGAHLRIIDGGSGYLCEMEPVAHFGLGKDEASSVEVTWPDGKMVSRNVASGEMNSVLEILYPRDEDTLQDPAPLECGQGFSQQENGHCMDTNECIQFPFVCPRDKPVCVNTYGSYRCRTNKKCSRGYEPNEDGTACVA
Procedure: (§1) A positive antigen (50 μL) and a negative control (50 μL) were added to each well of a 96 well plate, respectively. Then, the plate was incubated at 4° C. overnight, and the positive antigen and the negative control were immobilized in the well to obtain an antigen immobilized plate. Each well was washed twice with a washing solution (250 μL, 0.05% Tween (registered trademark) 20/20 mM potassium phosphate buffer (pH 7.4), 150 mM NaCl). To each well was added a blocking buffer (250 μL, 5% skim milk/20 mM potassium phosphate buffer (pH 7.4), 150 mM NaCl), and blocked at room temperature for 90 minutes. Culture supernatant (50 μL) of each hybridoma selected by primary screening was added to each well, and the cells were incubated at 37° C. for 1 hour. Each well was washed three times with a washing solution (250 μL). The HRP-labeled anti-mouse IgG antibody (MBL, product number 330) was diluted 1:1,000 with dilution buffer II (1% skim milk/20 mM potassium phosphate buffer (pH 7.4), 150 mM NaCl). A solution (50 μL) of this labeled antibody was added to each well, and the well was incubated at 37° C. for 1 hour. Each well was washed five times with a washing solution (250 μL). Chemical chromogenic substrate solutions (Bio-Rad, TMB Peroxidase EIA Substrate Kit) were added to respective wells at 50 μL, and the plate was allowed to stand at room temperature under shading for 30 minutes. The plate was set in a microplate reader (Thermo Fisher Scientific, Varioskan (registered trademark) Flash), and the color development intensity at 655 nm was measured for each well.
(§2) Reactivity of the monoclonal antibody contained in the culture supernatant of the hybridomas of clones 1B4 and 15C2 to the antigen was confirmed by ELISA using the 7 recombinant Crtac1B fragments described above. A specific operation was the same as that of the antigen immobilized ELISA method of Example 1. For comparison, ELISA was performed in the same manner using a 96 well plate in which no antigen was immobilized.
(§3) In addition, as to these monoclonal antibodies, the color development intensity when the recombinant Crtac1B fragments of #6 and #7 were used was substantially the same as that when a plate without immobilizing the antigen was used.

[2] = target: T2, recombinant Crtac1B fragment #7 (negative control) (human, UniProt Q9NQ79 28-606); assay: as above
T2 construct: also called fCrtac1B (1-606)
T2 sequence: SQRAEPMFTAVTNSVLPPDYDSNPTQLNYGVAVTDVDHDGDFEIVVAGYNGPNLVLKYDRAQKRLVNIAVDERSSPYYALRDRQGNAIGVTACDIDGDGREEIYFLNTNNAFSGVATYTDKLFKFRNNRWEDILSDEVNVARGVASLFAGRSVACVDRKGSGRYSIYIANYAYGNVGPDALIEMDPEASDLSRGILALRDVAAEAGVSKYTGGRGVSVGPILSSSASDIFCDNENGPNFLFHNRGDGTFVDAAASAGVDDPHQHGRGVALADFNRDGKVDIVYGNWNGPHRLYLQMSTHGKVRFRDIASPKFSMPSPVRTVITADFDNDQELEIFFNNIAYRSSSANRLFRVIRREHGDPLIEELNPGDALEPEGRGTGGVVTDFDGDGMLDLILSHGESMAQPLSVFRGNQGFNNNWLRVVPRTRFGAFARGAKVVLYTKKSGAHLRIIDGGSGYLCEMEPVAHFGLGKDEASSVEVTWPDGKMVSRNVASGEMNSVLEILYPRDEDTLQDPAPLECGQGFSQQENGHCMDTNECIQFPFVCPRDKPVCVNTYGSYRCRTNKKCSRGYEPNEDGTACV
Procedure: as §1, §2, §3

binding result [1]: no binding
binding result [2]: no binding
B1: 15C2 antibody (monoclonal antibody derived from the hybridoma of clone 15C2) (antibody, mouse IgG1, kappa, V domains shown)
VH: EVQLQQFGAELVKPGASVKISCKASGYTFTDYNMDWVKQSHGKSLEWIGDINPNYDSSSYNQKFKGKATLTVDKSSSTAYMELRSLTSEDTAVYYCTRSGGTYWGQGTLVTVSA
VL: DIQMNQSPSSLSASLGDTITITCHASQNINVWLSWYQQKPGNIPKLLIYKASNLHTGVPSRFSGSGSGTGFSLTISSLQPEDIATYYCQQAQSYPRTFGGGTKLEIKR
notes: Mouse IgG1; Used as hybridoma culture supernatant (ELISA) or purified from supernatant (IB, IP); also called anti-Crtac1B antibody; antibody of the present embodiment
